Data taken from PMC3335848, “Characterization of Multi-Functional Properties and Conformational Analysis of MutS2 from Thermotoga maritima MSB8” (PLoS ONE, 2012).

Assays:
TmMutS2 [1] = target: T1, TmMutS2 (Thermotoga maritima MSB8, UniProt Q9X105 1-757); assay: EMSA; no ATP; 0-2 uM protein; strongest binding among the DNAs; EMSA: 25 mM Hepes-NaOH pH 7.5, 200 mM NaCl, 0.5 mM EDTA, 37 C, 1 h; DNA 1 uM, TmMutS2 0-2 uM, +/- 1 mM ATP; settings: protein: recombinant; tags: His-tag removed with TEV protease (pET-28aTEV); chain copies: 2; label: 5'-32P (EMSA); four-way junction of 4 strands
T1 sequence: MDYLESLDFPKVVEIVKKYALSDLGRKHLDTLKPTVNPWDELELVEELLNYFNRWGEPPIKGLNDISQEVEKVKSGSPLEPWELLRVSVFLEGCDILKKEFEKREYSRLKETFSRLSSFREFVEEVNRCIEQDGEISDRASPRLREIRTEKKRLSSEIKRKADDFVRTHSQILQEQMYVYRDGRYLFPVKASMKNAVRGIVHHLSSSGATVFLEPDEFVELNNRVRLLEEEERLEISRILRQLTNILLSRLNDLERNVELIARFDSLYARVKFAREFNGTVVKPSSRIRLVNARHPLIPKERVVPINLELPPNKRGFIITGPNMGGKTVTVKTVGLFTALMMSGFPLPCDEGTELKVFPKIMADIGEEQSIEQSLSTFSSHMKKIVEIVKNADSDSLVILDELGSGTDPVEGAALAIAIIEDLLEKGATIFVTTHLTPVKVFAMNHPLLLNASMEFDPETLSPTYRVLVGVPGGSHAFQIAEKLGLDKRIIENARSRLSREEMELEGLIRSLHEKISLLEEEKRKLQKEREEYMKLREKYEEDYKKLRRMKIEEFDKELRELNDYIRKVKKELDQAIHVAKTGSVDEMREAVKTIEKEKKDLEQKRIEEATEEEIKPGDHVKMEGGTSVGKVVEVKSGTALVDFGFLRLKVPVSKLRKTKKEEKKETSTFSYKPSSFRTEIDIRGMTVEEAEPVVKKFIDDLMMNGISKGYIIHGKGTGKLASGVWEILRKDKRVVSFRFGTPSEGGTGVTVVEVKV

TmMutS2 [2] = target: T1, TmMutS2; assay: EMSA; no ATP; stronger than linear and overhang; EMSA: 25 mM Hepes-NaOH pH 7.5, 200 mM NaCl, 0.5 mM EDTA, 37 C, 1 h; DNA 1 uM, TmMutS2 0-2 uM, +/- 1 mM ATP; settings: protein: recombinant; tags: His-tag removed with TEV protease (pET-28aTEV); chain copies: 2; label: 5'-32P; fork; S19[1-37] paired with 3' part of S16, both other arms unpaired
[3] = target: the molecule itself; assay: AUC; sedimentation velocity, 20°C, 40000 rpm, 24 h, absorbance at 280 nm, C(s) method

B1: Four-way junction (FWJ, DNA 3) (structured_DNA)
DNA 1: GACGCTGCCGAATCCTACCAGTGCCTTGCTAGGACATCTTTGCCCACCTGCAGGTCACCC
DNA 2: TGGGTGAACCTGCAGGTGGGCAAAGATGTCCTAGCAATGTAATCGTCAAGCTTTATGCCGTT
DNA 3: ATCGATAGTCGGATCCTCTAGACAGCATGTCCTAGCAAGGCACTGGTAGAATTCGGCAGCGT
DNA 4: CAACGGCATAAAGCTTGACGATTACATTGCTAGGACATGCTGTCTAGAGGATCCGACTATCGA
binding result (TmMutS2 [1]): binds

B2: Flayed (DNA 4, fork) (structured_DNA)
DNA 1: AACGGCATAAAGCTTGACGATTACATTGCTAGGACATGCTGTCTAGAGGATCCGACTATCGA
DNA 2: TGGGTGAACCTGCAGGTGGGCAAAGATGTCCTAGCAATGTAATCGTCAAGCTTTATGCCGTT
binding result (TmMutS2 [2]): binds

B3: Thermotoga maritima MutS2 (enzyme, Thermotoga maritima MSB8, UniProt Q9X105 1-757, looked up)
chain: MDYLESLDFPKVVEIVKKYALSDLGRKHLDTLKPTVNPWDELELVEELLNYFNRWGEPPIKGLNDISQEVEKVKSGSPLEPWELLRVSVFLEGCDILKKEFEKREYSRLKETFSRLSSFREFVEEVNRCIEQDGEISDRASPRLREIRTEKKRLSSEIKRKADDFVRTHSQILQEQMYVYRDGRYLFPVKASMKNAVRGIVHHLSSSGATVFLEPDEFVELNNRVRLLEEEERLEISRILRQLTNILLSRLNDLERNVELIARFDSLYARVKFAREFNGTVVKPSSRIRLVNARHPLIPKERVVPINLELPPNKRGFIITGPNMGGKTVTVKTVGLFTALMMSGFPLPCDEGTELKVFPKIMADIGEEQSIEQSLSTFSSHMKKIVEIVKNADSDSLVILDELGSGTDPVEGAALAIAIIEDLLEKGATIFVTTHLTPVKVFAMNHPLLLNASMEFDPETLSPTYRVLVGVPGGSHAFQIAEKLGLDKRIIENARSRLSREEMELEGLIRSLHEKISLLEEEKRKLQKEREEYMKLREKYEEDYKKLRRMKIEEFDKELRELNDYIRKVKKELDQAIHVAKTGSVDEMREAVKTIEKEKKDLEQKRIEEATEEEIKPGDHVKMEGGTSVGKVVEVKSGTALVDFGFLRLKVPVSKLRKTKKEEKKETSTFSYKPSSFRTEIDIRGMTVEEAEPVVKKFIDDLMMNGISKGYIIHGKGTGKLASGVWEILRKDKRVVSFRFGTPSEGGTGVTVVEVKV
notes: MutS2 of Thermotoga maritima MSB8, gene amplified from genomic DNA; 89 kDa; residue numbers run to 757; Vector pET-28aTEV; also called TmMutS2; apo-TmMutS2; source: E. coli BL21 (DE3), purified (heat step at 65°C, Ni-NTA, TEV cleavage, Heparin Hitrap HP, Superdex 200 HR)
stoichiometry N [3]: 2
